From patent publication US20230279137A1 (EVOTEC INTERNATIONAL, published 2023)

B1: IFA43 (antibody, human IgG2, kappa)
heavy: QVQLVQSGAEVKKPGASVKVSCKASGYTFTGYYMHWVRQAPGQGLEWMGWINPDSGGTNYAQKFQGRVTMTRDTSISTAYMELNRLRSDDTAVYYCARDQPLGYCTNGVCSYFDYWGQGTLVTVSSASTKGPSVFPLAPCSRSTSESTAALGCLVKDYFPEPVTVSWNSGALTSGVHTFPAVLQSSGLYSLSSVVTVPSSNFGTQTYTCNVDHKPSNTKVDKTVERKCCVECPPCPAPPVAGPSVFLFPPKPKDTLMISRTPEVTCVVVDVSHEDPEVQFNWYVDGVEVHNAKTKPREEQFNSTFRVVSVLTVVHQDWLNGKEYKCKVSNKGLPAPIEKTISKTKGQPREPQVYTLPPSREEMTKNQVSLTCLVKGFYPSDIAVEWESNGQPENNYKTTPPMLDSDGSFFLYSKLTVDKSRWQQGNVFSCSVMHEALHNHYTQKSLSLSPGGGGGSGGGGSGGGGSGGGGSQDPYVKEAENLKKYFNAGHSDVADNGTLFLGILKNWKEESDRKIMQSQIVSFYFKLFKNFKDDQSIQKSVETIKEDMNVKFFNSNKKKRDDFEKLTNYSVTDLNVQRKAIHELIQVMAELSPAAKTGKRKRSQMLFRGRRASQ
light: DIQMTQSPSSVSASVGDRVTITCRASQGIYSWLAWYQQKPGKAPNLLIYTASTLQSGVPSRFSGSGSGTDFTLTISSLQPEDFATYYCQQANIFPLTFGGGTKVEIKRTVAAPSVFIFPPSDEQLKSGTASVVCLLNNFYPREAKVQWKVDNALQSGNSQESVTEQDSKDSTYSLSSTLTLSKADYEKHKVYACEVTHQGLSSPVTKSFNRGEC
B2: IFA49 (antibody, human IgG2, kappa)
heavy: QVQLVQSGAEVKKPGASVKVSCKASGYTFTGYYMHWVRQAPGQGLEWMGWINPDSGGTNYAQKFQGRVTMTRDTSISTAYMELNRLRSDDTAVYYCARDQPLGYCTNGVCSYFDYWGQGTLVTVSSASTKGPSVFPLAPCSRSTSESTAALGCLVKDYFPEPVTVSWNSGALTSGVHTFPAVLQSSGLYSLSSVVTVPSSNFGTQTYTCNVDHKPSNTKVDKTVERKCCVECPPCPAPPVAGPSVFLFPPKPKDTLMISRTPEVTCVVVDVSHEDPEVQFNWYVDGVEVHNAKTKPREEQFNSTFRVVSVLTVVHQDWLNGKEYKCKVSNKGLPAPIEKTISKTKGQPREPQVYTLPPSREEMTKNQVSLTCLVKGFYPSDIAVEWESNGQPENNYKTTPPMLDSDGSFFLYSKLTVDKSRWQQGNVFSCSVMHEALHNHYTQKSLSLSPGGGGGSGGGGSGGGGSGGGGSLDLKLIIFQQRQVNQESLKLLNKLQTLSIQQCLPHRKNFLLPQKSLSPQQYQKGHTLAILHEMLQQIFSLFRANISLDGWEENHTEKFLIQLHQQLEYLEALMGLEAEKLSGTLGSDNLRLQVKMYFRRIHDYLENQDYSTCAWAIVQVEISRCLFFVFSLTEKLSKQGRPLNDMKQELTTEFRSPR
light: B1 light
B3: IFA45 (antibody, human IgG2, kappa)
heavy: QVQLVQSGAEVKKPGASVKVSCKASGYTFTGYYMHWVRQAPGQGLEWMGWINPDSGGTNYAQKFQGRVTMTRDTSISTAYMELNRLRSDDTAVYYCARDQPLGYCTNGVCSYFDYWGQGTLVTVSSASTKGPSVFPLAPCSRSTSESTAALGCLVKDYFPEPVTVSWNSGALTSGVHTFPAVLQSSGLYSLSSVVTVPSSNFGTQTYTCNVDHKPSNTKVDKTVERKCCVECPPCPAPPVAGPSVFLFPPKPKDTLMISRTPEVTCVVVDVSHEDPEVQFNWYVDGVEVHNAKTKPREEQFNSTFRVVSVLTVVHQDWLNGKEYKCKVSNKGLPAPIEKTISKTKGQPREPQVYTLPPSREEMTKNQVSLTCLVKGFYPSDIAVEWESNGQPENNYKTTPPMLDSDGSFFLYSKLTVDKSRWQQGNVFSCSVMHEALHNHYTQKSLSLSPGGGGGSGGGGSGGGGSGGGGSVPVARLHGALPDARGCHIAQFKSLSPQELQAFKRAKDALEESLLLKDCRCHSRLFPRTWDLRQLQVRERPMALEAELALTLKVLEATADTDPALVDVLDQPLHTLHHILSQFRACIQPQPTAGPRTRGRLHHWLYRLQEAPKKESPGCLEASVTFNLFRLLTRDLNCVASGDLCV
light: B1 light
B4: IFA44 (antibody, human IgG2, kappa)
light: DIQMTQSPSSVSASVGDRVTITCRASQGIYSWLAWYQQKPGKAPNLLIYTASTLQSGVPSRFSGSGSGTDFTLTISSLQPEDFATYYCQQANIFPLTFGGGTKVEIKRTVAAPSVFIFPPSDEQLKSGTASVVCLLNNFYPREAKVQWKVDNALQSGNSQESVTEQDSKDSTYSLSSTLTLSKADYEKHKVYACEVTHQGLSSPVTKSFNRGECGGGGSGGGGSGGGGSGGGGSVPVARLHGALPDARGCHIAQFKSLSPQELQAFKRAKDALEESLLLKDCRCHSRLFPRTWDLRQLQVRERPMALEAELALTLKVLEATADTDPALVDVLDQPLHTLHHILSQFRACIQPQPTAGPRTRGRLHHWLYRLQEAPKKESPGCLEASVTFNLFRLLTRDLNCVASGDLCV
heavy: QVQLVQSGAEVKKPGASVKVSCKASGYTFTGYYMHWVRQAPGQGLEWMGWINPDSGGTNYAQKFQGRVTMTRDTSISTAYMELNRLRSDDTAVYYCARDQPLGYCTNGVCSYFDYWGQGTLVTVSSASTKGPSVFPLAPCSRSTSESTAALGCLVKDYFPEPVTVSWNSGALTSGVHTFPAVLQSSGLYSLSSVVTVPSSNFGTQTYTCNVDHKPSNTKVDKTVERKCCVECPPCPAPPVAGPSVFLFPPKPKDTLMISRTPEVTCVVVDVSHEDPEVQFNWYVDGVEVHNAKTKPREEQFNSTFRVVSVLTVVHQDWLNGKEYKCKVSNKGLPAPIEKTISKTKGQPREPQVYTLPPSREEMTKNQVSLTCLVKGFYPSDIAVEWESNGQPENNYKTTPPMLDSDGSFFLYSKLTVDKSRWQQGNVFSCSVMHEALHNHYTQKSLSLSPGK
B5: IFA42 (antibody, human IgG2, kappa)
light: DIQMTQSPSSVSASVGDRVTITCRASQGIYSWLAWYQQKPGKAPNLLIYTASTLQSGVPSRFSGSGSGTDFTLTISSLQPEDFATYYCQQANIFPLTFGGGTKVEIKRTVAAPSVFIFPPSDEQLKSGTASVVCLLNNFYPREAKVQWKVDNALQSGNSQESVTEQDSKDSTYSLSSTLTLSKADYEKHKVYACEVTHQGLSSPVTKSFNRGECGGGGSGGGGSGGGGSGGGGSQDPYVKEAENLKKYFNAGHSDVADNGTLFLGILKNWKEESDRKIMQSQIVSFYFKLFKNFKDDQSIQKSVETIKEDMNVKFFNSNKKKRDDFEKLTNYSVTDLNVQRKAIHELIQVMAELSPAAKTGKRKRSQMLFRGRRASQ
heavy: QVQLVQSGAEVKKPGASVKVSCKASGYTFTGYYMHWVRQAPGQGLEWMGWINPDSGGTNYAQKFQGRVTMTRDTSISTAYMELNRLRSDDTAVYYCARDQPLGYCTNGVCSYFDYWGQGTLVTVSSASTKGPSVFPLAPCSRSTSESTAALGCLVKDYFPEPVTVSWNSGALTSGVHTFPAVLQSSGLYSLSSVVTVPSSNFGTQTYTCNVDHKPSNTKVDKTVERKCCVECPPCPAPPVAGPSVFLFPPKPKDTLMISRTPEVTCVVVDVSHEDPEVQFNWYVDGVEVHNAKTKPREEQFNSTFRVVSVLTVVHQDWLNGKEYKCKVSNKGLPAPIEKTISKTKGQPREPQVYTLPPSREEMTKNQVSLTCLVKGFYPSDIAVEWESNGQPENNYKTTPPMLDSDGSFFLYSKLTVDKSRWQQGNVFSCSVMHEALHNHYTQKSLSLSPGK

Experiments:
Experiment in all cases: cell-based or functional assay
[1] = target: T1, human IFNγ receptor on HEK-Blue IFN-γ cells (human, UniProt P15260 18-489; P38484 22-337)
T1 sequence (looked up) 1: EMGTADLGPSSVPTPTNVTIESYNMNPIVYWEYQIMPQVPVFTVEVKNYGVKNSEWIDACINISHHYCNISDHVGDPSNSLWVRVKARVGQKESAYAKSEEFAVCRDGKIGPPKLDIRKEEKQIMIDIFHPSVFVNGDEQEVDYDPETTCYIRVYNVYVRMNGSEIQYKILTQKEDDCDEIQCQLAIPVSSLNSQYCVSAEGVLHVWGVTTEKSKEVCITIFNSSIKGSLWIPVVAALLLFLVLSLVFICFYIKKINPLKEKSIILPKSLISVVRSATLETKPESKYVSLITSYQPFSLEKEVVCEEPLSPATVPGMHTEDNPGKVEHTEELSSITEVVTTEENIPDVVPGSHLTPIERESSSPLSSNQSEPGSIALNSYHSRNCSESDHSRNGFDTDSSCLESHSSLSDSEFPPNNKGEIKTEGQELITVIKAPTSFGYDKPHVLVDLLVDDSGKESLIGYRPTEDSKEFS
T1 sequence (looked up) 2: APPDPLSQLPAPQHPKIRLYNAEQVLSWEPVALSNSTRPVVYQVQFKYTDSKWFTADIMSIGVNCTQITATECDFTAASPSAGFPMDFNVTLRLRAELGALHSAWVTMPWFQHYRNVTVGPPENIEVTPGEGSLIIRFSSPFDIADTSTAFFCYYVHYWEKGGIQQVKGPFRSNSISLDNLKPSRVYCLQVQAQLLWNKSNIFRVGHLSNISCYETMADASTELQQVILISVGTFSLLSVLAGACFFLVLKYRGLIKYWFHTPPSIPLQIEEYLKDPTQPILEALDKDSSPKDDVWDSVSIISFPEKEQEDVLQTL

[2] = target: human CD40 (human, UniProt P25942 21-277)
[3] = target: T1, human IFNγ receptor on HEK-Blue IFN-γ …; remark: listed apart in the source
[4] = target: T2, human type I IFN receptor on HEK-Blue IFN-α/β cells (human, UniProt P17181 28-557; P48551 27-515)
T2 sequence (looked up) 1: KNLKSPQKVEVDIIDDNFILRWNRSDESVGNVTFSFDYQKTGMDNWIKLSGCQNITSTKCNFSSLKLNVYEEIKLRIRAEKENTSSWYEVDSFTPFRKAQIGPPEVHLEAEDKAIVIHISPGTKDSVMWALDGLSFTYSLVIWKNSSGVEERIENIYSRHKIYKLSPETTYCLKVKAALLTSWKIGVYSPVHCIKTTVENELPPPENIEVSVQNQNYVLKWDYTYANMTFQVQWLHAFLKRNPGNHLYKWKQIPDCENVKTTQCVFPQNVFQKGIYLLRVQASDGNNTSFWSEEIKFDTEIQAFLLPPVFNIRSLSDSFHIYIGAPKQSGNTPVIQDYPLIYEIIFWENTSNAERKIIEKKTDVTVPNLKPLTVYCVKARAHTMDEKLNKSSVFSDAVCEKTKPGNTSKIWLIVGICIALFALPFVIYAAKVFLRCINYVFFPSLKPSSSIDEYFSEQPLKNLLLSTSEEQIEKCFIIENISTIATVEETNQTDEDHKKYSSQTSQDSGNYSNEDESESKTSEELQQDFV
T2 sequence (looked up) 2: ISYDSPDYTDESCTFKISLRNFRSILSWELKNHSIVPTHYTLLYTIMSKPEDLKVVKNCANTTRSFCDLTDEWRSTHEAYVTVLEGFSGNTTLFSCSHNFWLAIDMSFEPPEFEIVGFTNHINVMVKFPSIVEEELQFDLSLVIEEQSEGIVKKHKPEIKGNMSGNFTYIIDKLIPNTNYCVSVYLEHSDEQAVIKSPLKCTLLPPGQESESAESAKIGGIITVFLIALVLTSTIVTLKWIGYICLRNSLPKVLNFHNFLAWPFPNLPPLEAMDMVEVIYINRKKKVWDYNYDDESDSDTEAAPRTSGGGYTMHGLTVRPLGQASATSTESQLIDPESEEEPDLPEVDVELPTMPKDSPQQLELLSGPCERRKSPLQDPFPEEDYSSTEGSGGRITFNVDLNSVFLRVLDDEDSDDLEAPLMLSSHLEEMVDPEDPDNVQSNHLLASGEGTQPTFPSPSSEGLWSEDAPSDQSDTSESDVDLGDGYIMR

[5] = target: T3, human IFNλ receptor on HEK-Blue IFN-λ cells (human, UniProt Q8IU57 21-520; Q08334 20-325)
T3 sequence (looked up) 1: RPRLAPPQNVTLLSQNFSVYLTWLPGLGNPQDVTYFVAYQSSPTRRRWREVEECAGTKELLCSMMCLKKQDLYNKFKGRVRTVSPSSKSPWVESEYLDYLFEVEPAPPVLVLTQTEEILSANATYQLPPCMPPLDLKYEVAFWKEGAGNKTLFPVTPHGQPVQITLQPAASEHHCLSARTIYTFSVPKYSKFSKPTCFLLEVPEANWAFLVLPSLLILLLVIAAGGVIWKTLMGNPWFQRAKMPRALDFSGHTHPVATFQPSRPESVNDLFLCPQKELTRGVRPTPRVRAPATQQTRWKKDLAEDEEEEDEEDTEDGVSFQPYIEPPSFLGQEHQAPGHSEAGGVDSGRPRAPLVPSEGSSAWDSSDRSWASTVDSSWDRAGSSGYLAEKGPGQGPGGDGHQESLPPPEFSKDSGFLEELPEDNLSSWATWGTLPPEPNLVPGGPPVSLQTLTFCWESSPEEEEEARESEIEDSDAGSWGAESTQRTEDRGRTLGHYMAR
T3 sequence (looked up) 2: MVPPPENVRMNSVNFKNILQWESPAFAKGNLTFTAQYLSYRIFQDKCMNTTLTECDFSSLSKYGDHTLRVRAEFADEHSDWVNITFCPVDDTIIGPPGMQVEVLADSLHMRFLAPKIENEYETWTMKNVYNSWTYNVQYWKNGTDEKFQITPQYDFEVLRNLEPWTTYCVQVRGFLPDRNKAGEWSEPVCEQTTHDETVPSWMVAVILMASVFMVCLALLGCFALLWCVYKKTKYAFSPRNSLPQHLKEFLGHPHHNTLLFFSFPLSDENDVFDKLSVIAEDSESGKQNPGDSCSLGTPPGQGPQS

Sequence of human CD40 (P25942 21-277): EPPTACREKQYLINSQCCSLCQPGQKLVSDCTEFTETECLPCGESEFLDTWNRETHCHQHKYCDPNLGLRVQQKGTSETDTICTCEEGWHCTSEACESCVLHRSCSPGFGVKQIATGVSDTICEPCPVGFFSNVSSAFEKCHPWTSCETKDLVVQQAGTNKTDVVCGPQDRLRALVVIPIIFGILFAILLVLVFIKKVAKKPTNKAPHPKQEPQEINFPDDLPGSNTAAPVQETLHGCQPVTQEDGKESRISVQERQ

| Binder | IFNγ activity EC50, reporter in HEK-Blue IFNγ cells [1] | CD40 EC50 (ng/mL), NFκB-SEAP reporter in HEK-Blue CD40L cells [2] | IFNγ EC50 (ng/mL), reporter in HEK-Blue IFNγ cells [3] | IFNε EC50 (ng/mL), SEAP reporter in HEK-Blue hIFN-α/β cells [4] | IFNλ EC50 (ng/mL), reporter in HEK-Blue IFNλ cells [5] |
| --- | --- | --- | --- | --- | --- |
| B1 | < 0.01 ng/mL | 50.8 ng/mL | < 0.001 ng/mL | – | – |
| B2 | – | 65.8 ng/mL | – | 78.2 ng/mL | – |
| B3 | – | 25.8 ng/mL | – | – | < 0.001 ng/mL |
| B4 | – | 41.4 ng/mL | – | – | 0.153 ng/mL |
| B5 | – | 65.6 ng/mL | 15.4 ng/mL | – | – |
